Blank lines part the entries; values can stand above or below the binder they belong to.
Key:
[1] = biological target: T1, hCD38-Avi, ADP-ribosyl cyclase/cyclic ADP-ribose hydrolase 1 (Homo sapiens) aa 43-300 (Homo sapiens, UniProt P28907 43-300); assay: BLI Octet RED 384; antibody on ProA sensor, antigen 30 ug/ml
T1 construct: range 43-300; not shown: Avi tag as the name implies
T1 sequence (looked up): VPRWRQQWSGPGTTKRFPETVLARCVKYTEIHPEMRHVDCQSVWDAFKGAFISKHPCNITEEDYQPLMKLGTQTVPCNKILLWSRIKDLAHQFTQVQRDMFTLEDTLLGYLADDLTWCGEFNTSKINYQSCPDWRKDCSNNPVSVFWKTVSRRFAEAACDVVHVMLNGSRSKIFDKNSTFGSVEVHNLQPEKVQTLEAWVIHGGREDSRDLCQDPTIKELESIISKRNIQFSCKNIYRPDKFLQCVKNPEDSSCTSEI

[2] = biological target: T2, hAng2_H6F, Angiopoietin-2 (Homo sapiens) aa 19-496 (Homo sapiens, UniProt O15123 19-496); assay: BLI Octet RED 384; antibody on ProA sensor, antigen 30 ug/ml (510.2 nM); response at end of association
T2 construct: also called hAng-H6F; not shown: His and FLAG tags implied by the name 'H6F'
T2 sequence: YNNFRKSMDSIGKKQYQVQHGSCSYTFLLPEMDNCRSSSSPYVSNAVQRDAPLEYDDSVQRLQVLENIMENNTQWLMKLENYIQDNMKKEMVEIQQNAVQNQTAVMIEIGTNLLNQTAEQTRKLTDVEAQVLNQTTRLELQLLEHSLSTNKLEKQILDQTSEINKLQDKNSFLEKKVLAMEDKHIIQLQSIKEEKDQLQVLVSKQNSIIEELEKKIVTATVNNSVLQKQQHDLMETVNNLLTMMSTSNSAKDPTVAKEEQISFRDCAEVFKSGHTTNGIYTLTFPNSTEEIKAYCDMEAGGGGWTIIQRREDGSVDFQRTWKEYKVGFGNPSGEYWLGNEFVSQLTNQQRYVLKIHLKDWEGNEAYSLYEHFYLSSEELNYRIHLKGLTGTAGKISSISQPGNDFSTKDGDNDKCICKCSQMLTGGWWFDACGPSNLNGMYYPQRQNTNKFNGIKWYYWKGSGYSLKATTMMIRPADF
Method: Experimental study of nonspecific binding of bispecific chimeric antibodies to non-target antigens was performed on Forte Bio Octert RED 384. Protein A (ProA) biosensors (ForteBio) were immersed into a solution containing antibodies at a concentration of 10 μg/ml for 150 seconds to immobilize same. The baseline was recorded in a 1×KB solution for 30 seconds. The antibody-loaded sensors were then immersed into wells containing non-target antigens at a concentration of 30 μg/ml for 150 seconds. Complex dissociation was then recorded for 30 seconds.
The reference sensors went through all the steps as the sensors used to record analyte sensograms did, with the exception of the association step—at the association step, the sensors were immersed in a kinetic buffer solution without analyte (the reference sensor signals were measured in parallel with the recording of the main sensograms). The reference signal was subtracted from the signal received on sensors interacting with the analyte during the processing of sensograms.
Sensograms were processed using ForteBio Octet Data Analysisn 9.0 software. To report no non-specific interaction, the recorded signal level was checked at the end of the association step (the response parameter).

[3] = biological target: T3, extracellular domain of the human CSF1R protein (hCSF1R_His) (Homo sapiens, UniProt P07333 20-512); assay: BLI Octet RED 384; antibody on ProA sensor, antigen in solution; 1:1 global fit
T3 construct: range 20-512; Molecular weight 57.4 kDa; made in CHO cells; also called hCSF1_His; not shown: C-terminal His and FLAG tags
Method: (§1) The experiments were carried out using a kinetic buffer solution (hereinafter referred to as 1×KB) having the following formulation: 4.3 mM Na₂HPO₄; 136.9 mM NaCl, 1.5 mM KH₂PO₄; 2.7 mM KCl; the volume fraction of the added Tween 20 was 0.1%; the mass fraction of the added BSA (bovine serum albumin) was 0.1%; pH 7.4. Before the measurement, the ProA sensors were regenerated with a solution of 50 mM glycine and hydrochloric acid, pH 1.8 (5 seconds in the regenerating solution, 5 seconds in 1×KB, three repetitions). In the case of the hPD1ex-H6F and hCSF1R_His antigens, the Protein A (ProA) biosensors (ForteBio) were immersed in a solution with antibodies at a concentration of 10 μg/ml for 60 seconds to immobilize same. The baseline was recorded in 1×KB for 60 seconds. The sensors loaded with the antibody were then immersed into wells containing a solution of the target antigen (analyte) in a kinetic buffer for 90 seconds. Measurements were performed for solutions with hPDlex-H6F analyte at concentrations of 2.50 μg/ml (121.4 nM), 1.25 μg/ml (60.7 nM), 0.625 μg/ml (30.35 nM). […] Then we detected complex dissociation in 1×KB for 210 s for hPDlex-H6F, 300 s for hCSF1R_His.
(§2) All measurements were carried out at 30° C., orbital mixing speed was 1,000 revolutions per minute.
(§3) To obtain numerical values of kinetic constants (kₒₙ is the on/association rate constant, kdis is the dissociation rate constant, KD is the equilibrium dissociation constant or affinity constant), the resulting sensograms were processed according to the 1:1 interaction model using Global Fit (selection of one set of kon, kdis, KD constants to analyze several sensograms of different concentrations) of the ForteBio Octet Data Analysis 9.0 software.

[4] = biological target: T4, C-Avi-His-TEVs-HSA_hBCMA, Tumor necrosis factor receptor superfamily member 17 (Homo sapiens) aa 1-54 (Homo sapiens, UniProt Q02223 1-54); assay: BLI Octet RED 384; antibody on ProA sensor, antigen 30 ug/ml
T4 construct: range 1-54; not shown: Avi, His, TEV site and HSA parts as the name implies
T4 sequence (looked up): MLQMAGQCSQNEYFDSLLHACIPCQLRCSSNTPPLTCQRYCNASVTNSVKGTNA

[5] = biological target: T5, extracellular domain of the human PD-1 protein (hPD1ex-H6F) (Homo sapiens, UniProt Q15116 21-170); assay: BLI Octet RED 384; antibody on ProA sensor, antigen in solution; 1:1 global fit
T5 construct: Molecular weight 20.6 kDa; made in CHO cells; also called hPDlex-H6F; not shown: C-terminal His and FLAG tags
Method: as §1, §2, §3

T3 sequence (P07333 20-512 limits assumed): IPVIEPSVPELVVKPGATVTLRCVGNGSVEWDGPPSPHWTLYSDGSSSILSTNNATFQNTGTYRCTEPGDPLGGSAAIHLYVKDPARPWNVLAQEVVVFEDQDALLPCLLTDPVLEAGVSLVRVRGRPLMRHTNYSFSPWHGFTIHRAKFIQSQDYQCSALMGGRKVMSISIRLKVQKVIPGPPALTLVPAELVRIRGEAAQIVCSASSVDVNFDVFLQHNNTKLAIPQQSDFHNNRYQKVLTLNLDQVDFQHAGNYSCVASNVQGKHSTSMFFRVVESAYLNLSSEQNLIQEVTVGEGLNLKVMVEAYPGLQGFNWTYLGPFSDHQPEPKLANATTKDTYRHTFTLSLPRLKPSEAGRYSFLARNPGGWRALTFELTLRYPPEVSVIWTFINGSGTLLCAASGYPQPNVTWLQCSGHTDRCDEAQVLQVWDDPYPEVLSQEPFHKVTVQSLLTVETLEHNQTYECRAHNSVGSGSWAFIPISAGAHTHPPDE
T5 sequence (Q15116 21-170 limits assumed, form in doubt): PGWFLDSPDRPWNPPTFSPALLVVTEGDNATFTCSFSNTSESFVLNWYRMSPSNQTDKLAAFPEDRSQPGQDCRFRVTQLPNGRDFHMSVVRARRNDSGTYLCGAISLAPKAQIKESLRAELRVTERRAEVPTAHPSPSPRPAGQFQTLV

- binding result [1]: no binding (tested: 854.7 nM)
- Signal level (nm) [2]: -0.0124 nm
- Kd [3]: 0.549 nM
- koff [3]: 0.000236 s⁻¹
- kon [3]: 429000 M⁻¹ s⁻¹
B1: 02-008, bivalent bispecific chimeric antibody that specifically binds to CD20 and CSF1R (bispecific antibody, human IgG1, kappa, L234A L235A)
heavy 1: EVQLVESGGGLVQPGGSLRLSCAASGYTFTSYNMHWVRQAPGKGLEWVGAIYPGNGDTSYNQKFKGRFTISVDKSKNTLYLQMNSLRAEDTAVYYCARVVYYSNSYWYFDVWGQGTLVTVSSASTKGPSVFPLAPSSKSTSGGTAALGCLVKDYFPEPVTVSWNSGALTSGVHTFPAVLQSSGLYSLSSVVTVPSSSLGTQTYICNVNHKPSNTKVDKRVEPKSCDKTHTCPPCPAPEAAGGPSVFLFPPKPKDTLYITREPEVTCVVVDVSHEDPEVKFNWYVDGVEVHNAKTKPREEQYNSTYRVVSVLTVLHQDWLNGKEYKCKVSNKALPAPIEKTISKAKGQPREPQVCTLPPSRDELTKNQVSLSCAVKGFYPSDIAVEWESNGQPENNYKTTPPVLDSDGSFFLVSKLTVDKSRWQQGNVFSCSVMHEALHNHYTQKSLSLSPGK
light 1: DIQMTQSPSSLSASVGDRVTITCRASSSVSYMHWYQQKPGKAPKPLIYAPSNLASGVPSRFSGSGSGTDFTLTISSLQPEDFATYYCQQWSFNPPTFGQGTKVEIKRTVAAPSVFIFPPSDEQLKSGTASVVCLLNNFYPREAKVQWKVDNALQSGNSQESVTEQDSKDSTYSLSSTLTLSKADYEKHKVYACEVTHQGLSSPVTKSFNRGEC
heavy 2: not shown
light 2: QAGLTQPPSVSVAPGQTARITCGGNNIGSKSVHWYQQKPGQAPVLVVYGDSDRPSGIPERFSGSNSGNTATLTISRVEAGDEADYYCQVWDISSDHVVFGGGTQLTVLQRQVKPEAWLSSGPSPGPGRLQLVCHVSGFYPKPVWVMWMRGEQEQQGTQLGDILPNANWTWYLRATLDVADGEAAGLSCRVKHSSLEGQDIILYWRGSC
notes: Produced in CHO cells

- binding result [1]: no binding (tested: 854.7 nM)
- Signal level (nm) [2]: 0.0212 nm
- Kd [5]: 3.49 nM
- koff [5]: 0.000753 s⁻¹
- kon [5]: 216000 M⁻¹ s⁻¹
B2: 02-004, bivalent bispecific chimeric antibody that specifically binds to PD1 and CD20 (bispecific antibody, human IgG1, kappa, L234A L235A)
heavy 1: QVQLVQSGGGLVQPGGSLRLSCAASGFTFSSYWMYWVRQVPGKGLEWVSAIDTGGGRTYYADSVKGRFAISRVNAKNTMYLQMNSLRAEDTAVYYCARDEGGGTGWGVLKDWPYGLDAWGQGTLVTVSSASTKGPSVFPLAPSSKSTSGGTAALGCLVKDYFPEPVTVSWNSGALTSGVHTFPAVLQSSGLYSLSSVVTVPSSSLGTQTYICNVNHKPSNTKVDKRVEPKSCDKTHTCPPCPAPEAAGGPSVFLFPPKPKDTLYITREPEVTCVVVDVSHEDPEVKFNWYVDGVEVHNAKTKPREEQYNSTYRVVSVLTVLHQDWLNGKEYKCKVSNKALPAPIEKTISKAKGQPREPQVCTLPPSRDELTKNQVSLSCAVKGFYPSDIAVEWESNGQPENNYKTTPPVLDSDGSFFLVSKLTVDKSRWQQGNVFSCSVMHEALHNHYTQKSLSLSPGK
light 1: QPVLTQPLSVSVALGQTARITCGGNNIGSKNVHWYQQKPGQAPVLVIYRDSNRPSGIPERFSGSNSGNTATLTISRAQAGDEADYYCQVWDSSTAVFGTGTKLTVLQRTVAAPSVFIFPPSDEQLKSGTASVVCLLNNFYPREAKVQWKVDNALQSGNSQESVTEQDSKDSTYSLSSTLTLSKADYEKHKVYACEVTHQGLSSPVTKSFNRGEC
heavy 2: not shown
light 2: DIQMTQSPSSLSASVGDRVTITCRASSSVSYMHWYQQKPGKAPKPLIYAPSNLASGVPSRFSGSGSGTDFTLTISSLQPEDFATYYCQQWSFNPPTFGQGTKVEIKQRQVKPEAWLSSGPSPGPGRLQLVCHVSGFYPKPVWVMWMRGEQEQQGTQLGDILPNANWTWYLRATLDVADGEAAGLSCRVKHSSLEGQDIILYWRGSC
notes: Produced in CHO cells
- binding result [4]: no binding (tested: 391.2 nM)

- Signal level (nm) [2]: -0.0114 nm
- Kd [3]: 0.42 nM
- koff [3]: 0.00021 s⁻¹
- kon [3]: 500000 M⁻¹ s⁻¹
B3: 02-009, bivalent bispecific chimeric antibody that specifically binds to CD20 and CSF1R (bispecific antibody, human IgG1, kappa, L234A L235A)
heavy 1: QVQLVESGGGLVRPGGSLRLSCAASEFTFDDYAMSWVRQAPGKGLEWVSAISWNGGSTNYADSVKGRFTISRDNAKNSLYLQMNSLRAEDTALYYCASTVEVAHRRLYKYLEVWGQGTLVTVSSASTKGPSVFPLAPSSKSTSGGTAALGCLVKDYFPEPVTVSWNSGALTSGVHTFPAVLQSSGLYSLSSVVTVPSSSLGTQTYICNVNHKPSNTKVDKRVEPKSCDKTHTCPPCPAPEAAGGPSVFLFPPKPKDTLYITREPEVTCVVVDVSHEDPEVKFNWYVDGVEVHNAKTKPREEQYNSTYRVVSVLTVLHQDWLNGKEYKCKVSNKALPAPIEKTISKAKGQPREPQVCTLPPSRDELTKNQVSLSCAVKGFYPSDIAVEWESNGQPENNYKTTPPVLDSDGSFFLVSKLTVDKSRWQQGNVFSCSVMHEALHNHYTQKSLSLSPGK
light 1: QAGLTQPPSVSVAPGQTARITCGGNNIGSKSVHWYQQKPGQAPVLVVYGDSDRPSGIPERFSGSNSGNTATLTISRVEAGDEADYYCQVWDISSDHVVFGGGTQLTVLRTVAAPSVFIFPPSDEQLKSGTASVVCLLNNFYPREAKVQWKVDNALQSGNSQESVTEQDSKDSTYSLSSTLTLSKADYEKHKVYACEVTHQGLSSPVTKSFNRGEC
heavy 2: not shown
light 2: B2 light 2
notes: Produced in CHO cells
